Experimental data from IntAct's records for PubMed 11604410.

B1: Serine protease HTRA2, mitochondrial (Mus musculus), Q9JIY5 (parent)
chain: MAALKAGRGANWSLRAWRALGGIFWRKPPLLAPDLRALLTSGTPDSQIWMTYGTPSLPAQVPEGFLASRADLTSRTPDLWARLNVGTSGSSDQEARRSPGSRRREWLAVAVGAGGAVVLLLWGWGRGLSTVLAAVPAPPPTSPRSQYNFIADVVEKTAPAVVYIEILDRHPFSGREVPISNGSGFVVASDGLIVTNAHVVADRRRVRVRLPSGDTYEAMVTAVDPVADIATLRIQTKEPLPTLPLGRSADVRQGEFVVAMGSPFALQNTITSGIVSSAQRPARDLGLPQNNVEYIQTDAAIDFGNSGGPLVNLDGEVIGVNTMKVTAGISFAIPSDRLREFLHRGEKKNSWFGTSGSQRRYIGVMMLTLTPSILIELQLREPSFPDVQHGVLIHKVILGSPAHRAGLRPGDVILAIGEKLAQNAEDVYEAVRTQSQLAVRIRRGSETLTLYVTPEVTE
B2: Diablo IAP-binding mitochondrial protein (Mus musculus), Q9JIQ3 (parent)
chain: MAALRSWVTRSVCSLFRYRQRFPVLANSKKRCFSELIKPWHKTVLTGFGMTLCAVPIAQKSEPQSLSNEALMRRAVSLVTDSTSTFLSQTTYALIEAITEYTKAVYTLVSLYRQYTSLLGKMNSQEEDEVWQVIIGARVEMTSKQQEYLKLETTWMTAVGLSEMAAEAAYQTGADQASITARNHIQLVKSQVQEVRQLSQKAETKLAEAQTKELHQKAQEVSDEGADQEEEAYLRED

Variants of: B1
Conditions: with xiap_human XIAP

effect of a mutation on the interaction | Variant
increasing interaction | MAALKAGRGANWSLRAWRALGGIFWRKPPLLAPDLRALLTSGTPDSQIWMTYGTPSLPAQVPEGFLASRADLTSRTPDLWARLNVGTSGSSDQEARRSPGSRRREWLAVAVGAGGAVVLLLWGWGRGLSTVLAAVPAPPPTSPRSQINFIADVVEKTAPAVVYIEILDRHPFSGREVPISNGSGFVVASDGLIVTNAHVVADRRRVRVRLPSGDTYEAMVTAVDPVADIATLRIQTKEPLPTLPLGRSADVRQGEFVVAMGSPFALQNTITSGIVSSAQRPARDLGLPQNNVEYIQTDAAIDFGNSGGPLVNLDGEVIGVNTMKVTAGISFAIPSDRLREFLHRGEKKNSWFGTSGSQRRYIGVMMLTLTPSILIELQLREPSFPDVQHGVLIHKVILGSPAHRAGLRPGDVILAIGEKLAQNAEDVYEAVRTQSQLAVRIRRGSETLTLYVTPEVTE [Y147I]

Variants of: B1
Conditions: with xiap_human XIAP
Remark: another data set of the same source

effect of a mutation on the interaction | Variant
disrupting interaction | MAALKAGRGANWSLRAWRALGGIFWRKPPLLAPDLRALLTSGTPDSQIWMTYGTPSLPAQVPEGFLASRADLTSRTPDLWARLNVGTSGSSDQEARRSPGSRRREWLAVAVGAGGAVVLLLWGWGRGLSTVLAAVPAPPPTSPGSQYNFIADVVEKTAPAVVYIEILDRHPFSGREVPISNGSGFVVASDGLIVTNAHVVADRRRVRVRLPSGDTYEAMVTAVDPVADIATLRIQTKEPLPTLPLGRSADVRQGEFVVAMGSPFALQNTITSGIVSSAQRPARDLGLPQNNVEYIQTDAAIDFGNSGGPLVNLDGEVIGVNTMKVTAGISFAIPSDRLREFLHRGEKKNSWFGTSGSQRRYIGVMMLTLTPSILIELQLREPSFPDVQHGVLIHKVILGSPAHRAGLRPGDVILAIGEKLAQNAEDVYEAVRTQSQLAVRIRRGSETLTLYVTPEVTE [R144G]

Variants of: B2
Conditions: with xiap_mouse Xiap

effect of a mutation on the interaction | Variant
disrupting interaction | MAALRSWVTRSVCSLFRYRQRFPVLANSKKRCFSELIKPWHKTVLTGFGMTLCGVPIAQKSEPQSLSNEALMRRAVSLVTDSTSTFLSQTTYALIEAITEYTKAVYTLVSLYRQYTSLLGKMNSQEEDEVWQVIIGARVEMTSKQQEYLKLETTWMTAVGLSEMAAEAAYQTGADQASITARNHIQLVKSQVQEVRQLSQKAETKLAEAQTKELHQKAQEVSDEGADQEEEAYLRED [A54G]
